Source: US20250221936A1, “ENGINEERED HEMICHANNELS, ENGINEERED VESICLES, AND USES THEREOF” (VIRGINIA TECH INTELLECTUAL PROPERTIES, INC., priority 2018, published 2025)
No end group written: not given here.

Assays:
[1] = system: EVs isolated from cow milk; test: Milk EV loading with Calcein AM; settings: 0.1 and 1 μM
Description: EVs were isolated from cow milk and loaded with neutral non-fluorescent Calcein AM (10 μM) for 48 hours at 37 C in PBS buffer at pH 8.5 (FIG. 30A). […] Purity and integrity of exosomes isolated from cow milk was confirmed by negative stain electron microscopy (EM). FIG. 30B) illustrates an exosome isolated from cow milk. Scale bar=50 nm. The methods described herein of isolation from milk were adapted to obtain high yields of EV, taking particular care not to cause rapid and/or large-scale precipitation of milk casein, as well as in centrifugation steps, which can reduce EV yields from milk.
An exemplar of these methods is shown in FIGS. 31A-31C wherein Milk EVs incubated with Calcein AM show time-(FIG. 31A), pH-(FIG. 31B) and concentration-dependent effects on uptake of Calcein by EVs. Important to this method in the case of Calcein AM, are the multiple chemical groups linked by ester bonds to the molecule, which shield it's negatively charged moieties. Cleavage of these groups by ester bond breaking activities within EVs results in Calcein becoming negatively charged, fluorescent and retained within the EV—as exemplified by the green spots seen in most figure panels in FIG. 31. In FIG. 31A EVs are illustrated that were incubated for 1, 2 or 3 hours in PBS at 37 C at pH 7.4 with Calcein AM (5 μM). […]

Connexin 43 hemichannels = Connexin 43 hemichannels (Homo sapiens, UniProt P17302); format: cell-based; settings: 0.1 mM Ca^2+; Gap19 (200 μM)
Description: Media containing 0.1 mM Ca^2+ was used to open Cx43 hemichannels in the presence of 50 μM alphaCT11 peptide and/or the hemichannel blockers; Gap19 (200 μM) and carbenoxolone ([…]).

[2] = system: HC (hemichannel) activity; test: Hemichannel block in perfused hearts; design: species or system mouse; settings: 2 micromolar for 20 minutes before biotin-alphaCT11 infusion
Description: Briefly, isolated mouse hearts were perfused with 2 micromolar carbenoxolone for 20 minutes to block HC (hemichannel) activity prior to a 20 minute infusion with biotinylated alpha CT11 (biotin-alphaCT11) according to the method described in Example 20. […] Biotinylated alpha CT11 was detected and measured on LV cryosections by streptavidin Alexa647 as noted in association with FIGS. 18A-18E.

[3] = format: in vitro ADME
Source text: Despite efficacy of these peptides being delivered as unprotected peptide formulations, particularly when devlivered topically, delievery via many routes can be impeaded by degredation inside the body. Many other biologic and small molecule therapeutics also suffer from similar degradeation issues. Indeed, most unprotected short peptides and polynucleotides (e.g. miRNAs) are rapidly degraded in body fluids in vivo, thereby limiting the interest of the pharmaceutical industry in such molecules. This consideration is particularly relevant in pathologic situations, such as the heart post-MI, where hypoxia, oxygen free radicals, and […] prompt upregulation of degradation pathways. […] Protection by being loaded inside of an engineered vesicle can reduce degredation and/or can facilitate delivery of the cargo by forming channels with connexons present in cell membranes. See e.g. FIG. 17.

ZO-1 PDZ2 = target: T1, ZO-1 PDZ2 (Homo sapiens, UniProt Q07157); test: Protein thermal shift assay, ZO-1 PDZ2; format: binding; settings: 500 μg/ml protein, 25-100 μM peptide
T1 construct: the second of the three PDZ (PDZ2) domains of ZO-1; made in house; host or cells: E. coli BL21
T1 sequence (Q07157 186-264 limits assumed): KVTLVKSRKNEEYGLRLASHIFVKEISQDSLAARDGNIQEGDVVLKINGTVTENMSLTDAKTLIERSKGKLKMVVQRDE
Description: Thermal stability of recombinant GST-PDZ2 or Cx43 CT in the presence or absence of peptides was determined in a 96-well format. Each assay well was composed of 500 μg/ml protein, 25-100 μM of each peptide in PBS buffer, pH7.4. All assays were performed independently six times. Samples were generally prepared in 96-well plates at final volumes of 20 μL. The fluorescent dye SYPRO Orange (5000× concentrate in DMSO, ThermoFisher, S6650) was added to a final concentration of 8X. Reactions were run on QuantStudio 6 Flex Real-Time PCR system (Applied Biosystems, part of Life Technologies Corporation, CA) according to the manufacturer's recommendations using a melt protocol in 0.05-degree/see increments from 25° C. to 95° C. The Reporter Dye was “ROX” and quencher Dye and passive reference were selected as “None” for the melt curve according to manufacturer's instructions. The data were analyzed using Protein Thermal Shift™ Software v1.3 package (Applied Biosystems, CA).

GST-Cx43 CT = target: T2, GST-Cx43 CT (Rattus norvegicus, UniProt P08050); test: EDC cross-linking of kinase reaction mixtures, Cx43 CT; format: binding; settings: 5, 10 and 25 μM
T2 construct: pGEX-6-P2 Cx43 CT amino acids 255-382; made in house; host or cells: E. coli BL21
Description: To characterize the interaction between the Cx43 CT substrate and peptides, the in vitro kinase assay was performed as above with modification and the constituents then subjected to a cross-linking reaction. The assay buffer used was 20 mM 3-(N-morpholino) propanesulfonic acid (MOPS), pH 7.2. All other reagents present in the kinase reaction were maintained as described above. The reaction was allowed to proceed at 37° C. for 15 minutes. Afterwards, the carbodiimide crosslinker 1-Ethyl-3-(3-dimethylaminopropyl) carbodiimide HCl (EDC) (Thermo, 22980) was added to each solution for a final concentration of 20 mM. The solution was allowed to cross-link for one hour at room temperature. The reaction was stopped by the addition of 4×LDS loading buffer, boiled for 5 minutes and subsequently separated by PAGE. The resulting gel was stained in Coomassie brilliant blue (Sigma, B0770) for two hours and destained in a solution of 4% methanol 7% acetic acid overnight. Gel bands were subsequently excised for mass spectrometric analysis. For the direct interaction between protein and peptides, PBS, pH 7.5 was used as the coupling buffer. The protein (50 μg/ml) and peptide (25 μM) were allowed to react at room temperature for one hour before EDAC was added to the reaction mixture. The reaction was Western blotted for Cx43, GST or NeutroAvidin. […]

Hela cells = test: Cellular uptake of RhodB-aCT11 peptides; format: cell-based; settings: 200 to 2000 μM, 30 or 90 minutes, 37 C
Source text: Cells can take up the peptide, cytoplasmic esterases will cleave the allyl groups converting the peptide to RhodB-aCT11. RhodB-aCT11-Est, or any chemically modified drug molecule designed for cell uptake using ester bonded groups or related chemical modifications, can be packaged as cargo into EVs and exported by the cell into the media. EVs loaded with cargo molecules by this method can then be isolated using standard protocols and used in the treatment and other methods detailed herein.
Monolayers of Hela cells incubated with fluorescent-tagged RhodamineB-aCT11-Est, a cell-permeant peptide with allyl groups linked by ester bonds at aspartic (D) and glutamic (E) acid residues, as well as its carboxyl terminus are shown in FIG. 34A. The cells were incubated for 30 or 90 minutes at 37 C at pH 7.4 with different concentrations of peptides between 200 and 2000 μM. […] Cellular uptake can be observed in FIG. 34A to be particularly evident following 90 minutes at higher peptide concentrations (i.e., >1000 μM). […] RhodB-aCT11-Est taken up in this manner by cells can be packaged as cargo into EVs and following isolation can these EVs be used in treatment and other methods detailed herein.

[4] = target: Cx43 CT (Connexin 43 carboxyl terminus, amino acids 255 to 382) (UniProt P08050 255-382, limits assumed); test: cell-based or functional assay
Chain of Cx43 CT (Connexin 43 carboxyl terminus, amino acids 255 to 382) (P08050 255-382 limits assumed): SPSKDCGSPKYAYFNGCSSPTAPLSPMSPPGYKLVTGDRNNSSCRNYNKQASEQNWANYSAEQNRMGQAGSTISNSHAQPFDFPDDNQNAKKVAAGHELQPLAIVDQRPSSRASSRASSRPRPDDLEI

Chain of Connexin 43 hemichannels (P17302 2-382 limits assumed): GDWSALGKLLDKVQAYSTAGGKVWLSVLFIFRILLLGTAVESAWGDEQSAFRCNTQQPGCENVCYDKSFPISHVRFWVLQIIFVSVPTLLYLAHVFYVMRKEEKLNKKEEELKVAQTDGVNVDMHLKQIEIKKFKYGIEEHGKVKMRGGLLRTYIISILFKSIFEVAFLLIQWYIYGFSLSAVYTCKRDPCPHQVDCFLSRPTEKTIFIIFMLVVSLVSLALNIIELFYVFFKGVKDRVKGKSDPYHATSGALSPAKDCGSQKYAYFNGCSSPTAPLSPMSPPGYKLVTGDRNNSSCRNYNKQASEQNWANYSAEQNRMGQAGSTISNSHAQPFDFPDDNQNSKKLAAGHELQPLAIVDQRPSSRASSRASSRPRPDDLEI
T2 sequence (P08050 255-382): as the sequence (P08050 255-382 limits assumed) above

O=S(=O)(F)Cc1ccccc1 [PMSF]
Calcein uptake into and retention within milk EVs [1]: respectively inhibited and blocked

CC1(C)[C@@H](OC(=O)CCC(=O)O)CC[C@]2(C)[C@H]3C(=O)C=C4[C@@H]5C[C@@](C)(C(=O)O)CC[C@]5(C)CC[C@@]4(C)[C@]3(C)CC[C@@H]12 [carbenoxolone]
alphaCT11 uptake in presence of hemichannel blocker (Connexin 43 hemichannels): Dramatically lower levels of peptide uptake | cytoplasmic levels of alpha CT11 in myocytes [2]: significant reductions (p<0.05) in cytoplastic levels of alpha CT11

Gap19: Cx43 hemichannel blocker (KQIEIKKFK; Gap19; UniProt P17302 128-136, looked up, fragment)
alphaCT11 uptake in presence of hemichannel blocker (Connexin 43 hemichannels): Dramatically lower levels of peptide uptake

RPRPDDLEI [alpha CT11, RPRPDDLEI]
time to degradation in blood serum [3]: about 30 minutes

RQPKIWFPNRRKPWKK LPAARIAPR (RQPKIWFPNRRKPWKKLPAARIAPR) [M4 scram., reference compound]
PDZ2 melt temperature (Tm) (ZO-1 PDZ2): PDZ2 interaction incompetent | EDC cross-linking to Cx43 CT (GST-Cx43 CT): no evidence of cross-linking

RhodB-aCT11: fluorescently tagged RhodamineB aCT11 peptide (RPRPDDLEI) without ester bonded groups (also: RhodamineB label, site not given here)
cellular uptake (Hela cells): little evidence for uptake of RhodB-aCT11 is observed | cellular uptake (Hela cells; listed as RhodamineB aCT11): does not indicate cellular uptake

RQPKIWFPNRRKPWKKRPRPDDLEI (not fully specified) [alpha CT1]
Cx43 S368 phosphorylation (PKC-ε kinase assay, blots of pS368 over total Cx43) [4]: ~3 fold
